The results in this text go back to the supplement of paper PMC12042874.

± gives the uncertainty stated by the source.

The nature of the first data set: amyloid nucleation score (Sup35N fusion, yeast selection) (log enrichment); library NNK2; higher = more nucleation; inactive = no reads after selection. The method, boiled down:
(§1)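 The nucleation score is the log enrichment of output over input reads, calculated with DiMSum and centred on the mode score of non-aggregating sequences. Sequences with under 100 input reads were excluded. Reads came from Illumina sequencing of plasmid inserts from psi-negative yeast expressing Sup35N fused to peptides of 20 random codons, induced 24 hours with 100 μM copper sulfate and grown 7 days at 30°C without adenine and uracil.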
As for KLLKYLSNSFTHRVLCNHDD, the amyloid nucleation score entry is “inactive”.
The same measure, in the same setting: in the case of LRNLS it was -0.919 ± 1; in that of SVYGKFLYF, 2.23 ± 0.11.
Still for that read-out and setting: in the case of RFQVSLEILSIYRCRTTTD it was 3.27 ± 0.15; in that of YFRCVASCVT, “inactive”.
On the same count and under the same terms, as for SRSQPVICWNTWFVTWYESS, the figure is 8.914 ± 0.075; as for VVRVCRQGCLSNLSWCGWGE, -0.1 ± 1; as for FRTSYRSCCVNTYREVVVYA, -0.501 ± 0.45.
On to GSLKEAAGEYMVCRVRLSVG, for which the amyloid nucleation score worked out at 0.26 ± 0.46.
In turn, CGKLSLLNQVWIVSQPMPGQ showed an amyloid nucleation score of 7.57 ± 0.064.
The same measure, in the same setting: as for RCIIIAM, the figure is 2.88 ± 0.12.
Same read-out and setting: as for VFDVHIYRPSVP, the figure is 5.96 ± 0.069.
Take IVSLCFNNWGSYRVNGQYLY: the amyloid nucleation score was determined as 6.564 ± 0.033.
On to TGVLCGSYFFWLF, for which the amyloid nucleation score worked out at 5.15 ± 0.058.
Still for that read-out and setting: in the case of LGMFSYIS it was 0.105 ± 0.44.
The same measure, in the same setting: as for KFLGYQLPPRDSSSGTF, the figure is 0.066 ± 0.27.
Turning to NGMRIGTDLGFYSRGMLRTQ, the amyloid nucleation score was found to be 0.162 ± 0.26.
On the same count and under the same terms, in the case of VLSNSEYVFTNR it was -0.5 ± 0.28.
Take IFLEMKDHIIRATFNRLRFC: the amyloid nucleation score entry is “inactive”.
The same measure, in the same setting: as for YSELIVTVIYKSTSSVRISC, the figure is -0.285 ± 0.33; as for FSPTGSITWNCIRYYLVTRS, -0.279 ± 0.33.
Same read-out and setting: as for TMVALKI, the figure is -0.15 ± 0.44; as for NQTNSGQRVY, -0.208 ± 1.1.
In the case of RLSCFMNRGVREDSDSN, the amyloid nucleation score was -0.766 ± 0.61.
Substance DKPTCETTV showed an amyloid nucleation score of -0.659 ± 0.49.
In turn, TSSWRVWAYQSAAANMHTDL returned an amyloid nucleation score of 5.01 ± 0.06.
With GGEIESIGFRLGCLSRRSES, the amyloid nucleation score was -0.383 ± 0.49.
Still for that read-out and setting: as for YSARRSGNFPVVRLMMNDLT, the figure is -0.153 ± 0.65.
With YCQSIVFCSI, the amyloid nucleation score came to 3.84 ± 0.086.
Same read-out and setting: as for AFKKYQS, the figure is -0.114 ± 0.74; as for RHMWDHFCCFF, 5.28 ± 0.094.
The same measure, in the same setting: in the case of WDSVRSWKPFPHTSNKWFIL it was -0.679 ± 0.48.
In turn, TDFFCLTIFFNVEHVISKCI yielded an amyloid nucleation score of 2.14 ± 0.17.
Same read-out and setting: in the case of IIADCTVARARHCLE it was 0.276 ± 1; in that of VWSNLSVRLRHI, -0.196 ± 1; in that of NHSVYVYMLMALTTWGVLSS, -0.403 ± 0.79.
Same read-out and setting: in the case of WMRRAVAAND it was 0.186 ± 0.54; in that of WYDSIMT, -0.084 ± 0.35; in that of NKLYFVGKWNGFVSSVCSLV, -0.942 ± 0.41.
Still for that read-out and setting: as for HSSISVCVYSRLPCH, the figure is -0.447 ± 0.36; as for IVGLQVAFFLVFKSVHRDVA, “inactive”; as for RGLCVGSSARFCVY, 0.691 ± 0.6.
Take NENKGNF: the amyloid nucleation score was -0.947 ± 0.54.
On the same count and under the same terms, as for NFSYNRCVR, the figure is 0.383 ± 0.49.
Same read-out and setting: as for YSMLQF, the entry is “inactive”; as for LTTLKFRFFLIIKRSSAGCC, 0.461 ± 0.8; as for FSDNKLFA, 0.715 ± 0.81.
On the same count and under the same terms, in the case of FLTLPFLPAHLKKPHKSLLR it was -0.083 ± 0.56.
For IFGSWSSIMCLTKFKCSLGG, the amyloid nucleation score turned out to be 2.8 ± 0.081.
The same measure, in the same setting: in the case of SCLSSFELVL it was -0.694 ± 1.1.
Same read-out and setting: as for MDFYYLGSVCHVDLLAQYLV, the entry is “inactive”; as for CANYSDARITFTYNSYKICV, 1.09 ± 0.2.
Take IWVGSILTQSPVVDGYFRCR: the amyloid nucleation score was found to be 0.145 ± 0.35.
On the same count and under the same terms, in the case of LKLTVPKDRRKKMKGRVALI it was -0.064 ± 0.76; in that of CREEDGLLDVSYKRSDMGGS, -0.267 ± 0.65; in that of PNDLLHLSRLIQDMWMINFN, “inactive”.
The same measure, in the same setting: as for LRVWVTAFFFSVMMCEQMFQ, the entry is “inactive”; as for LLMQYPSLVMVAGRFLVANL, -0.082 ± 0.5.
The same measure, in the same setting: as for HSFMSRVARVSWMEMVVTLA, the figure is 1.26 ± 0.41; as for HRVCLNTIGY, -1.02 ± 0.32; as for RFFNPNMLKFALSGQ, -1.37 ± 0.44.
As for LVVIYMTRVGASTKLRVSVL, the amyloid nucleation score entry was “inactive”.
Same read-out and setting: in the case of CESWMGAKTITLELTGGDSE it was 0.664 ± 0.38; in that of CWKVREENRVVRCTHSYFLE, -1.03 ± 0.55; in that of RVQAGFIRAGCNIEARKFSG, -0.48 ± 0.28.
Same read-out and setting: as for NRYVEVCPFLMGTVVGLWLR, the figure is 0.851 ± 0.8; as for FQDVDVLGSWPG, 0.387 ± 0.53; as for VRLFTVGWRSGKNVGNTSDA, -0.263 ± 1.1.
In the case of EYAYILELFYQCFVMPYTLV, the amyloid nucleation score was determined as 0.392 ± 0.51.

A short description of another data set: amyloid nucleation score (Sup35N fusion, yeast selection) (log enrichment); library NNK3; higher = more nucleation; inactive = no reads after selection. The method, boiled down: as §1
For the substance MRGINRIDLLPG, the amyloid nucleation score entry was “inactive”.
Take GFEPRRYP: the amyloid nucleation score was -0.646 ± 1.3.
Same read-out and setting: as for LSWIWNLANSVKDNMGGMRM, the entry is “inactive”; as for IYEVVMVCISESLFLLMVKG, “inactive”; as for HAVLFSVDVSYYLVPALLFR, “inactive”.
The same measure, in the same setting: in the case of VEMATKLQVKVIERALNEGD it was “inactive”.
Same read-out and setting: in the case of RFFNFPGNLKLSHVDLIAIW it was 0.214 ± 0.64; in that of SAHEFIVDCRYESIRMFVII, “inactive”; in that of YYMNVESALECECWTIFKPC, “inactive”.
For the substance APSNGRE, the amyloid nucleation score entry was “inactive”.
The same measure, in the same setting: in the case of SWGPLINLRFQLLARCTPGL it was “inactive”; in that of NLEFFCKDV, “inactive”.
Same read-out and setting: as for TKCNRALHMEVIIQATAVAR, the entry is “inactive”; as for YIASLLDYFCMQEDQAYFDY, “inactive”; as for ATCWTLGNDVRFGMRAFTFV, “inactive”.
In turn, GRKDLKYIQSGDMQFQSSKW had an amyloid nucleation score of 0.138 ± 1.
Still for that read-out and setting: as for DRYMRLCVFGYKYVSYG, the entry is “inactive”.
As to YIFFWKRTFLP, the amyloid nucleation score entry was “inactive”.
Still for that read-out and setting: in the case of CIVLTVKCSLA it was -0.669 ± 0.55; in that of TVFCLVKFRLEFYVTMPEYC, “inactive”.
INWCSVTDRCHKGMCLKSAG: the amyloid nucleation score result was “inactive”.
The same measure, in the same setting: as for RGAVCVNFTSRWSWGIGEHH, the figure is 1.33 ± 0.11; as for LQYLRDCEFCRYVCYCNWLY, 0.443 ± 0.34; as for FLGLLLIYQPNSIE, “inactive”.
Same read-out and setting: in the case of QLTNRKCR it was -0.8 ± 2.5.
On the same count and under the same terms, as for NYDIASLFTTNKSFV, the entry is “inactive”; as for FVSLSRNLNCTPRL, “inactive”.
YYLDRVYIFSTQDL gave an amyloid nucleation score of 1.67 ± 0.065.
HDCGYQITYGDNRIVYMCFV: the amyloid nucleation score entry was “inactive”.
Same read-out and setting: as for FICHYEHKKVRHRVYAKAYI, the entry is “inactive”; as for FSFFRGTRLGKSARIAERFE, “inactive”; as for TGLKYRLY, “inactive”.
GRKKWGLSQSCDKLPMGHTS: the amyloid nucleation score entry is “inactive”.
On the same count and under the same terms, in the case of FFLGVSDSMKFLYLMPTEFD it was “inactive”; in that of NVVSWGHDLYGKKAPALWEV, “inactive”; in that of IPYKHIHRMPFFYHWQQRFG, “inactive”.
Still for that read-out and setting: in the case of LLYIRC it was 0.705 ± 0.23.
The same measure, in the same setting: as for MSVYRYSKAVYARIEFTSRS, the entry is “inactive”; as for FGMLFIWRK, “inactive”; as for NTRRNYNGRYLVLCIRLQLR, 1.81 ± 0.072.
CTTDRGVVLWVCRNG: the amyloid nucleation score entry is “inactive”.
On to VGFPESPFDSLCAMCALQWV, for which the amyloid nucleation score result is “inactive”.
Still for that read-out and setting: in the case of IFASDTVL it was “inactive”; in that of LAASVNYILRNIDCGVRMRF, “inactive”.
Same read-out and setting: in the case of FSAKDFSNVYRSPSMF it was “inactive”; in that of VGFCNGIGVVMGRPAKCSWR, -0.06 ± 1.1.
VFIPVASVIKWGSFKP showed an amyloid nucleation score of 0.65 ± 0.21.
Still for that read-out and setting: as for RGFICIGTLYLLAPVFCARS, the figure is 2.85 ± 0.062; as for WGFLQLHEPS, “inactive”; as for LLLIFS, “inactive”.
Regarding ASTRNVGYRVT, the amyloid nucleation score result was “inactive”.
On the same count and under the same terms, as for IMDGFWCIDTGCLTAHGMWM, the entry is “inactive”.
Still for that read-out and setting: as for KIYQYPVGRLGNCSGLHVWT, the entry is “inactive”; as for YFYSSDALPSIS, “inactive”; as for FDKTCGSSRNLSRAWDNLTF, “inactive”.
Turning to YLSRLIIFLSLPD, the amyloid nucleation score entry was “inactive”.
The same measure, in the same setting: in the case of IQNSRNNKHYATFGTQFFMS it was “inactive”.
On the same count and under the same terms, in the case of ADFKKVSSLLRSTGLVGGFR it was “inactive”.
On the same count and under the same terms, as for FQNLAYMITAAPASGKKTSR, the entry is “inactive”; as for SKHIIFSFIGDLI, 0.654 ± 0.11; as for DHNARSVCTSNHSMAKRMFG, “inactive”.
With DFPIGYHHNVMI, the amyloid nucleation score entry is “inactive”.
The same measure, in the same setting: in the case of FFYEPGVPRFYFQLFLLLSF it was “inactive”; in that of MSDWLDELVGSPMSKREVCR, “inactive”; in that of PSSRT, “inactive”.
On the same count and under the same terms, as for CCIMLTWKRCLNKRLVTTDP, the entry is “inactive”.
